Test results published in patent US20060252677A1.
Values joined by “and” are separate entries in the source; they are usually repeats but may differ in a detail not shown here. Equal entries are not always repeated.

Target: T1, Protein-X (novel PSD) expressed from injected RNA in Xenopus oocytes (human) (UniProt Q5T2T1)
T1 sequence: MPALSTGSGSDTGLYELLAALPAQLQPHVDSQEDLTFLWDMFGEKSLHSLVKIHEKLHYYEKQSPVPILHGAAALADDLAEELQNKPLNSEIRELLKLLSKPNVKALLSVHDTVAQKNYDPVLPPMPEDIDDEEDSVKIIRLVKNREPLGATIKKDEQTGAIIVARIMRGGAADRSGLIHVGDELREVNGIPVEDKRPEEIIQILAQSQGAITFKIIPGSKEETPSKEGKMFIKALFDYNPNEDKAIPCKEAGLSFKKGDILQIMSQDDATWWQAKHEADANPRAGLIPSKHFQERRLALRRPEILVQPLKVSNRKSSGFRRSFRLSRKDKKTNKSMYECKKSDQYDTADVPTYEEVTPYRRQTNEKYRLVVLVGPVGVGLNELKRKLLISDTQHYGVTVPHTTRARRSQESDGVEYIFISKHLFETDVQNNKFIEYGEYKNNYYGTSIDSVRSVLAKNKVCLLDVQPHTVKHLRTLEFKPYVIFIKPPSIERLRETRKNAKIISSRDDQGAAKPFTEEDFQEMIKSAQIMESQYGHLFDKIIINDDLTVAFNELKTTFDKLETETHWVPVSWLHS
Test: cell-based or functional assay

current response to the ligand stimulation of the NMDA receptor in oocytes, against Protein-X alone: 7 times and 8 times
B1: PJ01087 protein (Protein-Y) expressed from injected RNA in Xenopus oocytes (protein)
chain: MRGYHGDRGSHPRPARFADQQHMDVGPAARAPYLLGSREAFSTEPRFCAPRAGLGHISPEGPLSLSEGPSVGPEGGPAGAGVGGGSSTFPRMYPGQGPFDTCEDCVGHPQGKGAPRLPPTLLDQFEKQLPVQQDGFHTLPYQRGPAGAGPGPAPGTGTAPEPRSESPSRIRHLVHSVQKLFAKSHSLEAPGKRDYNGPKAEGRGGSGGDSYPGPGSGGPHTSHHHHHHHHHHHHQSRHGKRSKSKDRKGDGRHQAKSTGWWSSDDNLDSDSGFLAGGRPPGEPGGPFCLEGPDGSYRDLSFKGRSGGSEGRCLACTGMSMSLDGQSVKRSAWHTMMVSQGRDGYPGAGPGKGLLGPETKAKARTYHYLQVPQDDWGGYPTGGKDGEIPCRRMRSGSYIKAMGDEESGDSDGSPKTSPKAVARRFTTRRSSSVDQARINCCVPPRIHPRSSIPGYSRSLTTGQLSDELNQQLEAVCGSVFGELESQAVDALDLPGCFRMRSHSYLRAIQAGCSQDDDCLPLLATPAAVSGRPGSSFNFRKAPPPIPPGSQAPPRISITAQSSTDSAHESFTAAEGPARRCSSADGLDGPAMGARTLELAPVPPRASPKPPTLIIKTIPGREELRSLARQRKWRPSIGVQVETISDSDTENRSRREFHSIGVQVEEDKRRARFKRSNSVTAGVQADLELEGLAGLATVATEDKALQFGRSFQRHASEPQPGPRAPTYSVFRTVHTQGQWAYREGYPLPYEPPATDGSPGPAPAPTPGPGAGRRDSWIERGSRSLPDSGRASPCPRDGEWFIKMLRAEVEKLEHWCQQMEREAEDYELPEEILEKIRSAVGSTQLLLSQKVQQFFRLCQQSMDPTAFPVPTFQDLAGFWDLLQLSIEDVTLKFLELQQLKANSWKLLEPKEEKKVPPPIPKKPLRGRGVPVKERSLDSVDRQRQEARKRLLAAKRAASFRHSSATESADSIEIYIPEAQTRL
